The assay has as its target mutant E-cadherin-GFP (Y753, 754, 859, and 876 mutated into F) (human) (UniProt P12830). The assay can be described thus: co-IP; lysates of HEK293T cells transiently transfected with WT or mutant E-Cdh-GFP; IP with anti-GFP antibody; Western blot for α- and β-Ctn, densitometry relative to the WT band set to 1. On the technique in general: Immunoblotting shows a protein as a band on a membrane.
UniProt P12830, sequence (P12830 other isoform, or with tags, fused parts or gaps mutant): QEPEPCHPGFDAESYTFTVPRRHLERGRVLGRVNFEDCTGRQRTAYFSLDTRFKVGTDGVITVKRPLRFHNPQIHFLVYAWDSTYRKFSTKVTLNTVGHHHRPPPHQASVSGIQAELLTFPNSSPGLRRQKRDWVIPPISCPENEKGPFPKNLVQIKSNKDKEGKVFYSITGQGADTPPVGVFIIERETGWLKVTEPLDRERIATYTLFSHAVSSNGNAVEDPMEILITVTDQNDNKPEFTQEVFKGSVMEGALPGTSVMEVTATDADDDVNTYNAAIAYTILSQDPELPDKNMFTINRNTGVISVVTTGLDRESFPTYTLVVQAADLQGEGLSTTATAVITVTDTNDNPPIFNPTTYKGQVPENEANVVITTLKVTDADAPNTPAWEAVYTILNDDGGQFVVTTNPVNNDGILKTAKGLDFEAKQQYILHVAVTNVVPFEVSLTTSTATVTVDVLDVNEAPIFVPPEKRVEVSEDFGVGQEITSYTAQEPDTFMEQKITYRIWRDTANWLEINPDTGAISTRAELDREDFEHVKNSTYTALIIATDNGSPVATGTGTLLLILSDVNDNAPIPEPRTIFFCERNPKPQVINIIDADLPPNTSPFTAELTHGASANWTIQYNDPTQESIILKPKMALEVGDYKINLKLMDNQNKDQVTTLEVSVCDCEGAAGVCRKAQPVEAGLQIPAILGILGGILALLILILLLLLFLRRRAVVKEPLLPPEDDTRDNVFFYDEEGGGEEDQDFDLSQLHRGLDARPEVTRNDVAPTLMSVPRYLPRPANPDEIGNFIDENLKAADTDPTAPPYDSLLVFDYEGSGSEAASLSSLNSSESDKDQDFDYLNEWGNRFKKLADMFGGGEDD

In turn, “α-catenin (from UniProt P35221 1-906) (natural protein)” yielded a reduction of co-immunoprecipitation relative to WT E-Cdh-GFP of 60%.

Substance “β-catenin (from UniProt P35222 1-781) (natural protein)” had a reduction of co-immunoprecipitation relative to WT E-Cdh-GFP of 60%.

The values above are taken from paper PMC6966528.
